The results in this text go back to the supplement of paper PMC10567573.

± gives the standard deviation.

A short description of this data set: protein stability index of a GFP-peptide fusion (GPS, HEK-293T) (PSI 1-6); higher = more stable. To be noted: c terminus: a fixed tail appended.
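Also: 24-mer peptide tiles fused after GFP, lentivirally expressed, FACS-sorted into six equal bins by GFP/DsRed ratio, decoded by Illumina sequencing, PSI is the read-weighted mean bin number.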

Turning to APAAPMVSKGAESSRSSEESSSDS [BRD3], the protein stability index is, setting by setting: (treatment: DMSO) 5.59 ± 0.19; (treatment: MLN4924 1 uM, 8 h) 5.63 ± 0.18.
Sequence QKAVKSCLVCQASFCELHLKPHLE [TRIM29] came in with a protein stability index (treatment: DMSO) of 3.86 ± 0.19 and a protein stability index (treatment: MLN4924 1 uM, 8 h) of 3.86 ± 0.25.
ERAHKGEKPYGCSECGKAFPRKSE [ZNF649] yielded a protein stability index (treatment: DMSO) of 4.23 ± 0.12 and a protein stability index (treatment: MLN4924 1 uM, 8 h) of 4.7 ± 0.48.
The matching figures for SRGGPPPPPPPPHNSGPPPPPARG [WASL]: 5.13 ± 0.26 and 5.07 ± 0.07.
The matching figures for KAQGHGAKGDNVYEFHLEFLDLVK [HACD3]: 2.37 ± 0.2 and 2.46 ± 0.14.
The matching figures for LRRGASVNRTTRTNSTPLRAACFD [FEM1A]: 3.81 ± 0.38 and 3.87 ± 0.31.
In the case of GDTPIRKKEELLFDDGDDIMATLG [FBF1], the protein stability index reads like this: (treatment: DMSO) 4.35 ± 0.18; (treatment: MLN4924 1 uM, 8 h) 4.47 ± 0.29.
PSRVHGSLEPFRPQQAPQDDGSQD [PWWP2B]: the protein stability index reads like this: (treatment: DMSO) 5.52 ± 0.21; (treatment: MLN4924 1 uM, 8 h) 5.52 ± 0.22.
The matching figures for IAANLENKATNTDHLTTVLYLQLA [C8orf76]: 2.36 ± 0.28 and 2.17 ± 0.25.
The matching figures for LTCEFNNNHESLDEELHLLIISCR [FBXO39]: 2.27 ± 0.41 and 2.41 ± 0.39.
For GGKKDKARYIDTHNRVSKEDEDIY [PLK2], the protein stability index reads like this: (treatment: DMSO) 4.37 ± 0.27; (treatment: MLN4924 1 uM, 8 h) 4.73 ± 0.4.
EAAEAVRPEERKTCRNPACGPQWE [ADAMTSL2]: the protein stability index reads like this: (treatment: DMSO) 4.8 ± 0.27; (treatment: MLN4924 1 uM, 8 h) 4.74 ± 0.21.
The matching figures for KEAAEAIEAEGATAPLTELLHSRN [CTNNB1]: 5.38 ± 0.28 and 5.28 ± 0.11.
The matching figures for LRNFNSAKDMKKAVAHMKYMGKGS [MATN2]: 3.05 ± 0.37 and 3.43 ± 0.46.
With SYPMRRSYRYKLLNWAYQQVQQNK [STEAP1], the protein stability index reads like this: (treatment: DMSO) 2.34 ± 0.19; (treatment: MLN4924 1 uM, 8 h) 2.36 ± 0.25.
The matching figures for YKILLDVKTRLEQEIATYRRLLEG [KRT17]: 2.32 ± 0.14 and 2.39 ± 0.37.
The matching figures for DPRYNKWMQVASLNEKRTFFHLSA [KLHL13]: 2.36 ± 0.32 and 2.12 ± 0.13.
In the case of VWKHGITPPLKNVRKKRFRKTQKK [TAF7L], the protein stability index by setting is: (treatment: DMSO) 3.46 ± 0.16; (treatment: MLN4924 1 uM, 8 h) 3.86 ± 0.17.
The matching figures for DQPMGGWEMIRKIGDTSVSYKYTS [LMNB1]: 3.1 ± 0.31 and 3.2 ± 0.28.
Regarding VIVKEGGLKLIQIQDNGTGIRKED [MLH1], the protein stability index came to 3.44 ± 0.33 (treatment: DMSO) and 3.48 ± 0.41 (treatment: MLN4924 1 uM, 8 h).
In the case of SLIPLILDLMKEWIAHSEKLPRKV [SPACA9], the protein stability index is, setting by setting: (treatment: DMSO) 2.28 ± 0.46; (treatment: MLN4924 1 uM, 8 h) 2.02 ± 0.36.
In the case of IYRFLKLHPRGKNNFSPLHLAVDK [FEM1C], the protein stability index was found to be 2.31 ± 0.45 (treatment: DMSO) and 2.25 ± 0.28 (treatment: MLN4924 1 uM, 8 h).
The matching figures for GQQDLFRVLKAYTLYRPEEGYCQA [TBC1D10A]: 2.03 ± 0.37 and 2.16 ± 0.31.
For the sequence GSINLLESPQLATLAEDVTAALAK [MAP2], the protein stability index came out at 4.12 ± 0.066 (treatment: DMSO) and 4.05 ± 0.27 (treatment: MLN4924 1 uM, 8 h).
Turning to SALASDRFNLILADTNSDRLFTVN [DCAF4], the protein stability index amounted to 2.61 ± 0.18 (treatment: DMSO) and 2.69 ± 0.32 (treatment: MLN4924 1 uM, 8 h).
GVLHKHQRALHKYSLMKRQMMSAT [SNX8]: the protein stability index by setting is: (treatment: DMSO) 2.4 ± 0.18; (treatment: MLN4924 1 uM, 8 h) 2.58 ± 0.24.
In turn, KDFANTIPGHGGIMDRFDCQYLMA [CDS2] had a protein stability index (treatment: DMSO) of 2.69 ± 0.37 and a protein stability index (treatment: MLN4924 1 uM, 8 h) of 2.8 ± 0.26.
Regarding SGSQMSHNAVTSHQRPGWPGQPHS [NCF4], the protein stability index is, setting by setting: (treatment: DMSO) 3.95 ± 0.34; (treatment: MLN4924 1 uM, 8 h) 3.94 ± 0.29.
The matching figures for CRELGYVEAKSWTASSSYGKGEGP [LOXL2]: 3.44 ± 0.41 and 3.45 ± 0.37.
As for SIKGSSGLGGGSSRTSCRLSGGLG [KRT17], the protein stability index is, setting by setting: (treatment: DMSO) 3.39 ± 0.19; (treatment: MLN4924 1 uM, 8 h) 3.42 ± 0.28.
With KGFGFVTMTNYDEAAMAIASLNGY [ELAVL3], the protein stability index came to 2.34 ± 0.13 (treatment: DMSO) and 2.37 ± 0.1 (treatment: MLN4924 1 uM, 8 h).
As to RRENSTLDVECHEKEKHVNQLQTK [SASS6], the protein stability index (treatment: DMSO) came to 5.13 ± 0.11 and the protein stability index (treatment: MLN4924 1 uM, 8 h) worked out at 5.26 ± 0.23.
The matching figures for SCKADVVELLLSHADCDRRSRIEA [FEM1B]: 2.42 ± 0.17 and 2.65 ± 0.29.
Consider KSLDGVTNDRTASQGQWGRAWEVD [DHCR7], for which the protein stability index by setting is: (treatment: DMSO) 4.47 ± 0.11; (treatment: MLN4924 1 uM, 8 h) 4.465 ± 0.035.
The matching figures for PTVGIGGDRLQFNQLSQAELDELA [EFHC1]: 5.13 ± 0.23 and 5.27 ± 0.15.
The matching figures for APVPEPPKEEQQQALEQFAAAAAH [EPB41L3]: 5.54 ± 0.21 and 5.56 ± 0.17.
